Target: the molecule itself
Assay: SEC; Superdex 200 10/300 GL in crosslinking buffer (0.1 M potassium phosphate, 5 mM EDTA, 0.150 M NaCl, pH 6.5-7.0), 0.75 ml/min; mutant reduced with TCEP before loading; fractions followed by A280 and catalytic activity; starting solution of low purity

B1: L-asparaginase mutant A38C-T263C (enzyme, E. coli, UniProt P00805 23-348, looked up)
chain: LPNITILATGGTIAGGGDSATKSNYTVGKVGVENLVNCVPQLKDIANVKGEQVVNIGSQDMNDNVWLTLAKKINTDCDKTDGFVITHGTDTMEETAYFLDLTVKCDKPVVMVGAMRPSTSMSADGPFNLYNAVVTAADKASANRGVLVVMNDTVLDGRDVTKTNTTDVATFKSVNYGPLGYIHNGKIDYQRTPARKHTSDTPFDVSKLNELPKVGIVYNYANASDLPAKALVDAGYDGIVSAGVGNGNLYKSVFDTLATAAKCGTAVVRSSRVPTGATTQDAEVDDAKYGFVASGTLNPQKARVLLQLALTQTKDPQQIQQIFNQY
notes: L-asparaginase II of E. coli (ansB), expressed with its natural signal peptide, which was excised; In the cross-linking experiments the two introduced cysteines were reacted with Bi-MAL-PEG (2000 or 5000 g/mol) after reduction with TCEP; also called mutant L-asparaginase; precursor mutant
B1: binds.

— PMC6063399, “Thiol-maleimide poly(ethylene glycol) crosslinking of L-asparaginase subunits at recombinant cysteine residues introduced by mutagenesis” (PLoS ONE, 2018)
